This note sets out measurements from patent US20080020964A1, “Test System for the Discovery of Substances for the Promotion of Neuraxonal Growth” (priority 2003, published 2008).

Test [1] deals with PC12 cells. Description: Neurite growth in PC12 cells transiently transfected with Smn or hnRNP-R and -Q. The note with it: transient overexpression, differentiation with 50 ng/ml NGF for three days. The class given is cell-based, rat. Here is the method:
Rat pheochromocytoma cells (PC12) were cultivated in DMEM (Invitrogen, Carlsbad, Calif., USA)+10% horse serum+5% fetal calf serum+antibiotics. Before the transfection, the cells were plated out in a high density in 24-well culture dishes and transfected with 1 μg plasmid DNA (Lipofectamine 2000; Invitrogen, Carlsbad, Calif., USA). For this purpose, expression plasmids were used, into which wildtype forms marked with epitope tags (HA tag of FLAG tag) or mutated versions of Smn, hnRNP-R or hnRNP-Q have been cloned. On the day after the transfection, the cells were plated out in 35 mm culture dishes on glass plates coated with poly-DL-or nithine in a density of 1,000 cells/cm^2. As a differentiation medium, DMEM+2% horse serum and 1% fetal calf serum+50 ng/ml NGF+antibiotics were used. After three days, the cells were fixed and stained. The PC12 cells were fixed with 4% paraformaldehyde (PFA) in buffered common salt solution (PBS). […] After washing again with TBS-T, the cells were embedded in Mowiol and evaluated at the fluorescence microscope or the confocal microscope as mentioned above.

For test [2], the system named is PC12 cells. The test is described as follows: Neurite growth in Smn or hnRNP-R or -Q overexpressing stable PC12 cell lines. The note with it: differentiated seven days. The test is classed as cell-based, rat. Here is the method:
For preparing stable cell lines, PC12 cells were cultivated as described above, and transfected with expression vectors for the wildtype form or mutated Smn, hnRNP-R or hnRNP-Q. Thereafter, the cells were selected in a small cell density with the antibiotic G418 with regard to their neomycin resistance. Individual clones were tested by Western blot analysis for their stable expression of the constructs to be expressed. For measuring the neurite length, the cells were plated out as described above on coated glass plates, differentiated by the addition of differentiation medium and fixed, stained after seven days, and the neurite growth was quantified as described above.

For test [3], the system named is PC12 cell lines. The test is described as follows: β-actin content in neurites and growth cones of cultivated PC12 cell lines (immunostaining). The test is classed as cell-based, rat. The note with it: stable PC12 cell lines, anti-actin / anti-β-actin antibodies. Here is the method:
The cultivation of PC12 cell lines and the fixation, staining and evaluation was performed as described above. As antibodies, monoclonal anti-Smn antibodies (BD Biosciences, Lexington, Ky., USA, 1:500), rabbit anti-hnRNP-R antibodies (Rossoll et al., 2002; 1:1,000), anti-actin (Roche, Bale, Switzerland, 1:200) and β-actin (Abcam, Cambridge, UK; 1:1,000) were used. Since in neurites preferably β-actin is localized, the results are similar for anti-actin and specifically anti-β-actin.

In test [4] the test system is 3′ untranslated region of β-actin mRNA. The test is described as follows: Binding of radioactively marked β-actin mRNA to immunoprecipitated HA-marked hnRNP-R (filter, PSL). The note with it: HA-marked protein from transfected HEK 293 cells, 32P-marked RNA, 30 minutes at room temperature. Here is the method: The untranslated 3′ regions of β-actin from the stop codon to the poly-A sequence or the so-called zipcode region (Kislauskis et al., 1994) were amplified by RT-PCR and cloned into a plasmid with the binding site for the T7 RNA polymerase (pTZ19). Optionally, a poly-A tail of 30 nucleotides was added. (Used primers:
actinUTRfwd […], actinUTRpolyAfullrev, ATGAGAATTC-T(30)-[…], actinUTRpolyAziprev, ATGA-GAATTC-T(30)-[…], actinUTRfullrev, […]). The plasmids were linearized by digestion with EcoRI at the 3′ end, and were purified. […]
A cell line from human embryonic kidney cells (HEK 293) was transfected with expression constructs marked by HA epitope for the wildtype forms or mutated versions of Smn or hnRNP-R. After 48 hours, the cells were lysated in lysis buffer (25 mM Tris-HCl pH=8.0, 137 mM NaCl, 2 mM EGTA, 2 mM EDTA, 10% glycerol, 1% Triton X-100, 0.05% β-mercaptoethanol and protease inhibitors; Roche, Bale, Switzerland), and the HA-marked proteins were purifies by immunoprecipitation with anti-HA agarose (HA.11, Covance, Denver, Pa., USA). […] These filters were exposed with phosphoimager plates (BAS-2500, Photo Film Europe GmbH, Duesseldorf, Germany), and the bound radioactivity was measured as photo-stimulating luminescence (PSL) by means of the AIDA software package (Raytest, Straubenhardt, Germany).

In the case of “SmnY272C: Smn with a point mutation, no interaction with hnRNP-R, also found in SMA patients”, in test [1], the “effect on neurite growth” value was “no stimulating effect”.

B1: hnRNP-R: heterogeneous nuclear ribonucleic protein R, epitope-tagged wildtype form overexpressed from an expression plasmid (protein, UniProt O43390 2-633, looked up)
Heterogeneous nuclear …: ANQVNGNAVQLKEEEEPMDTSSVTHTEHYKTLIEAGLPQKVAERLDEIFQTGLVAYVDLDERAIDALREFNEEGALSVLQQFKESDLSHVQNKSAFLCGVMKTYRQREKQGSKVQESTKGPDEAKIKALLERTGYTLDVTTGQRKYGGPPPDSVYSGVQPGIGTEVFVGKIPRDLYEDELVPLFEKAGPIWDLRLMMDPLSGQNRGYAFITFCGKEAAQEAVKLCDSYEIRPGKHLGVCISVANNRLFVGSIPKNKTKENILEEFSKVTEGLVDVILYHQPDDKKKNRGFCFLEYEDHKSAAQARRRLMSGKVKVWGNVVTVEWADPVEEPDPEVMAKVKVLFVRNLATTVTEEILEKSFSEFGKLERVKKLKDYAFVHFEDRGAAVKAMDEMNGKEIEGEEIEIVLAKPPDKKRKERQAARQASRSTAYEDYYYHPPPRMPPPIRGRGRGGGRGGYGYPPDYYGYEDYYDDYYGYDYHDYRGGYEDPYYGYDDGYAVRGRGGGRGGRGAPPPPRGRGAPPPRGRAGYSQRGAPLGPPRGSRGGRGGPAQQQRGRGSRGSRGNRGGNVGGKRKADGYNQPDSKRRQTNNQQNWGSQPIAQQPLQQGGDYSGNYGYNNDNQEFYQDTYGQQWK
modifications: epitope tag
Consider B1, for which the “neurite length versus control cell lines (untransfected or empty plasmid)” value in test [2] was “three times longer neurites”. For the same molecule, the “β-actin staining in the growth zones of the neurites” value in test [3] was “strong concentration of β-actin”. In addition, the “binding to the 3′ untranslated region of β-actin mRNA” value in test [4] is recorded as “bind to the 3′ untranslated region of β-actin mRNA”.

B2: hnRNP-Q: heterogeneous nuclear ribonucleic protein Q, epitope-tagged wildtype form overexpressed from an expression plasmid (protein, UniProt O60506 2-623, looked up)
Heterogeneous nuclear …: ATEHVNGNGTEEPMDTTSAVIHSENFQTLLDAGLPQKVAEKLDEIYVAGLVAHSDLDERAIEALKEFNEDGALAVLQQFKDSDLSHVQNKSAFLCGVMKTYRQREKQGTKVADSSKGPDEAKIKALLERTGYTLDVTTGQRKYGGPPPDSVYSGQQPSVGTEIFVGKIPRDLFEDELVPLFEKAGPIWDLRLMMDPLTGLNRGYAFVTFCTKEAAQEAVKLYNNHEIRSGKHIGVCISVANNRLFVGSIPKSKTKEQILEEFSKVTEGLTDVILYHQPDDKKKNRGFCFLEYEDHKTAAQARRRLMSGKVKVWGNVGTVEWADPIEDPDPEVMAKVKVLFVRNLANTVTEEILEKAFSQFGKLERVKKLKDYAFIHFDERDGAVKAMEEMNGKDLEGENIEIVFAKPPDQKRKERKAQRQAAKNQMYDDYYYYGPPHMPPPTRGRGRGGRGGYGYPPDYYGYEDYYDYYGYDYHNYRGGYEDPYYGYEDFQVGARGRGGRGARGAAPSRGRGAAPPRGRAGYSQRGGPGSARGVRGARGGAQQQRGRGVRGARGGRGGNVGGKRKADGYNQPDSKRRQTNNQNWGSQPIAQQPLQGGDHSGNYGYKSENQEFYQDTFGQQWK
modifications: epitope tag
For the molecule B2, the “neurite length versus control cell lines (untransfected or empty plasmid)” value in test [2] is listed as “three times longer neurites”.
